# Measurements as given in patent US11440969B2, “Use of human epididymis protein 4 (HE4) for assessing responsiveness of MUC 16-positive cancer treatment” (Genentech, Inc., priority 2016, dated 2022).
# Several values for one entry are separate records, joined by “and”; a condition that tells them apart may be missing. Equal values may be shown once.
# B1: DMUC5754A: antibody-drug conjugate: humanized IgG1 anti-MUC16 monoclonal antibody and MMAE, linked through protease labile linker maleimidocaproyl-valine-citrulline-p-aminobenzyloxycarbonyl (conjugate, chains of the INN, looked up)
# VH: EVQLVESGGGLVQPGGSLRLSCAASGYSITNDYAWNWVRQAPGKGLEWVGYISYSGYTTYNPSLKSRFTISRDTSKNTLYLQMNSLRAEDTAVYYCARWTSGLDYWGQGTLVTVSS
# VL: DIQMTQSPSSLSASVGDRVTITCKASDLIHNWLAWYQQKPGKAPKLLIYGATSLETGVPSRFSGSGSGTDFTLTISSLQPEDFATYYCQQYWTTPFTFGQGTKVEIK
# modifications: MMAE via mc-vc-PABC linker
# Assays:
# [1] = tested on: recombinant human MUC16 extracellular domain; assay: Binding to recombinant human MUC16 extracellular domain
# [2] = DMUC5754A pharmacokinetics in patients (total antibody ELISA; acMMAE and unconjugated MMAE LC/MS/MS); format: in vivo, human
# Text: Pharmacokinetics (PK) of DMUC5754A was characterized following q3w or qlw dosing schedules in both OC and PC patients. Serum or plasma samples at multiple pre-specified time points were quantified for three analytes (unconjugated MMAE, DMUC5754A total antibody, and DMUC5754A conjugate (measured as antibody-conjugated MMAE, acMMAE)). Total antibody (antibody with MMAE-to-antibody ratio equal or greater than zero, including conjugated, partially deconjugated and fully deconjugated antibody) were analyzed using validated enzyme-linked immunosorbent assay methods with the minimum quantifiable concentration of 60 ng/mL. Plasma acMMAE and unconjugated MMAE were determined by using validated LC/MS/MS assays. The lower limit of quantitation (LLOQ) for the acMMAE assay and unconjugated MMAE were 0.359 ng/mL and 0.0359 ng/mL in human plasma, respectively. PK data after Cycle 1, Day 1 dose of DMUC5754A were analyzed with non-compartmental analysis using Phoenix WinNonlin 6.2 (Certara, L. P.), and further evaluated based on dose regimen and cancer type.
# [3] = Cycle 1, 2.4 mg/kg q3w, OC (n = 29), Mean [SD]
# [4] = Cycle 1, 2.4 mg/kg q3w, PC (n = 10), Mean [SD]
# [5] = q1w 1st dose, 0.8 mg/kg, OC, N 3
# [6] = q1w 1st dose, 1.1 mg/kg, OC, N 7
# [7] = q1w 1st dose, 1.4 mg/kg, OC, N 6
# [8] = q1w 1st dose, 1.4 mg/kg, PC, N 1
# [9] = q1w 1st dose, 1.6 mg/kg, OC, N 4
# [10] = q3w 1st cycle, 0.3 mg/kg, OC, N 3
# [11] = q3w 1st cycle, 0.6 mg/kg, OC, N 3
# [12] = q3w 1st cycle, 1.2 mg/kg, OC, N 3
# [13] = q3w 1st cycle, 1.8 mg/kg, OC, N 3
# [14] = q3w 1st cycle, 2.4 mg/kg, OC, N 29
# [15] = q3w 1st cycle, 2.4 mg/kg, PC, N 10
# [16] = q3w 1st cycle, 3.2 mg/kg, OC, N 3
molecule,measurement,setting,value
B1,binding affinity,[1],high affinity
same,acMMAE CL,[2]; [3],1.06 ± 0.35 mL/h/kg
same,acMMAE Vss,[2]; [3],82.1 ± 21.1 mL/kg
same,acMMAE t1/2,[2]; [3],5.01 ± 1.45 days
same,acMMAE Vss,[2]; [4],94.6 [32.4] mL/kg
same,acMMAE t1/2,[2]; [4],5.42 [1.91] day
same,"systemic unconjugated MMAE exposure, fold less than acMMAE exposure","[2]; human, in vivo",approximately 100 fold
same,Total Antibody AUCinf,[2]; [5],33.2 µg·days/mL
same,Total Antibody Cmax,[2]; [5],13000 ng/mL
same,acMMAE AUCinf,[2]; [5],386 ng·days/mL
same,acMMAE Cmax,[2]; [5],227 ng/mL
same,Unconjugated MMAE Cmax,"[2]; q1w 1st dose, 0.8 mg/kg, OC, n = 2",1.24 ng/mL
same,Total Antibody AUCinf,[2]; [6],56.1 µg·days/mL
same,Total Antibody Cmax,[2]; [6],17700 ng/mL
same,Unconjugated MMAE Cmax,[2]; [6],3.23 ng/mL
same,acMMAE Cmax,[2]; [6],301 ng/mL
same,acMMAE AUCinf,"[2]; q1w 1st dose, 1.1 mg/kg, OC, n = 6",612 ng·days/mL
same,Total Antibody AUCinf,[2]; [7],73.0 µg·days/mL
same,Total Antibody Cmax,[2]; [7],23900 ng/mL
same,Unconjugated MMAE Cmax,[2]; [7],3.73 ng/mL
same,acMMAE Cmax,[2]; [7],449 ng/mL
same,acMMAE AUCinf,"[2]; q1w 1st dose, 1.4 mg/kg, OC, n = 5",813 ng·days/mL
same,Total Antibody AUCinf,[2]; [8],55.7 µg·days/mL
same,Total Antibody Cmax,[2]; [8],17300 ng/mL
same,Unconjugated MMAE Cmax,[2]; [8],7.59 ng/mL
same,acMMAE AUCinf,[2]; [8],542 ng·days/mL
same,acMMAE Cmax,[2]; [8],204 ng/mL
same,Total Antibody AUCinf,[2]; [9],82.3 µg·days/mL
same,Total Antibody Cmax,[2]; [9],29700 ng/mL
same,Unconjugated MMAE Cmax,[2]; [9],5.75 ng/mL
same,acMMAE AUCinf,[2]; [9],957 ng·days/mL
same,acMMAE Cmax,[2]; [9],539 ng/mL
same,Total Antibody Cmax,[2]; [10],6650 ng/mL
same,Unconjugated MMAE AUCinf,[2]; [10],4.33 ng·days/mL
same,Unconjugated MMAE Cmax,[2]; [10],0.675 ng/mL
same,acMMAE AUCinf,[2]; [10],135 ng·days/mL
same,acMMAE Cmax,[2]; [10],93.3 ng/mL
same,Total Antibody AUCinf,"[2]; q3w 1st cycle, 0.3 mg/kg, OC, n = 2",13.1 µg·days/mL
same,Total Antibody AUCinf,[2]; [11],29.5 µg·days/mL
same,Total Antibody Cmax,[2]; [11],16600 ng/mL
same,Unconjugated MMAE AUCinf,[2]; [11],10.3 ng·days/mL
same,Unconjugated MMAE Cmax,[2]; [11],2.03 ng/mL
same,acMMAE AUCinf,[2]; [11],310 ng·days/mL
same,acMMAE Cmax,[2]; [11],226 ng/mL
same,Total Antibody AUCinf,[2]; [12],81.8 µg·days/mL
same,Total Antibody Cmax,[2]; [12],22500 ng/mL
same,Unconjugated MMAE AUCinf,[2]; [12],19.2 ng·days/mL
same,Unconjugated MMAE Cmax,[2]; [12],2.84 ng/mL
same,acMMAE AUCinf,[2]; [12],715 ng·days/mL
same,acMMAE Cmax,[2]; [12],337 ng/mL
same,Total Antibody AUCinf,[2]; [13],106.0 µg·days/mL
same,Total Antibody Cmax,[2]; [13],35500 ng/mL
same,Unconjugated MMAE AUCinf,[2]; [13],33.1 ng·days/mL
same,Unconjugated MMAE Cmax,[2]; [13],4.7 ng/mL
same,acMMAE AUCinf,[2]; [13],1050 ng·days/mL
same,acMMAE Cmax,[2]; [13],618 ng/mL
same,Total Antibody AUCinf,[2]; [14],178.0 µg·days/mL
same,Total Antibody Cmax,[2]; [14],42200 ng/mL
same,Unconjugated MMAE Cmax,[2]; [14],6.77 ng/mL
same,acMMAE AUCinf,[2]; [14],1850 ng·days/mL
same,acMMAE Cmax,[2]; [14],860 ng/mL and 860 [216] ng/mL
same,Unconjugated MMAE AUCinf,"[2]; q3w 1st cycle, 2.4 mg/kg, OC, n = 28",55.5 ng·days/mL
same,Total Antibody AUCinf,[2]; [15],167.0 µg·days/mL
same,Total Antibody Cmax,[2]; [15],38900 ng/mL
same,Unconjugated MMAE AUCinf,[2]; [15],63.6 ng·days/mL
same,Unconjugated MMAE Cmax,[2]; [15],7.7 ng/mL
same,acMMAE AUCinf,[2]; [15],1680 ng·days/mL
same,acMMAE Cmax,[2]; [15],737 ng/mL and 737 [115] ng/mL
same,Total Antibody AUCinf,[2]; [16],324.0 µg·days/mL
same,Total Antibody Cmax,[2]; [16],71400 ng/mL
same,Unconjugated MMAE Cmax,[2]; [16],20 ng/mL
same,acMMAE AUCinf,[2]; [16],3380 ng·days/mL
same,acMMAE Cmax,[2]; [16],1220 ng/mL
same,Unconjugated MMAE AUCinf,"[2]; q3w 1st cycle, 3.2 mg/kg, OC, n = 1",111 ng·days/mL
same,"increase of exposure of acMMAE or total antibody (Cmax or AUCinf, Cycle 1) with dose","[2]; q3w and q1w cohorts, 0.3-3.2 mg/kg, nonlinear PK",not dose proportional
